Key:
Assay in all cases: EMSA
Nab2;Tbp;Brf1 = molecular target: T1, Nab2;Tbp;Brf1 (Saccharomyces cerevisiae;Saccharomyces …, UniProt P32505;P13393;P29056 1-525;1-240;1-596, ||)
T1 sequence 1: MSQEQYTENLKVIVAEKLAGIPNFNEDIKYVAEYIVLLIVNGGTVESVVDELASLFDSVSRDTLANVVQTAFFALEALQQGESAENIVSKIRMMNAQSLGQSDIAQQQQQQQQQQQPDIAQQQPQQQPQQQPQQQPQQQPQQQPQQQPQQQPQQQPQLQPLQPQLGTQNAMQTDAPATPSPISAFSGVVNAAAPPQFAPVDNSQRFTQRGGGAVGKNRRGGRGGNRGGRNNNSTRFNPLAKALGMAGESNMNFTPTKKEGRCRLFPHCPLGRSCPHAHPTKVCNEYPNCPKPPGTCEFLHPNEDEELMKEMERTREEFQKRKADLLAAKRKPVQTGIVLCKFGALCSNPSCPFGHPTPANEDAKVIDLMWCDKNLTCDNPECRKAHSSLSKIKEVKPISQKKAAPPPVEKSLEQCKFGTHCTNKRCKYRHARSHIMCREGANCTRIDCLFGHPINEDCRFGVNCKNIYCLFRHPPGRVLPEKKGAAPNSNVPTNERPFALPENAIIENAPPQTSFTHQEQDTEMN
T1 sequence 2: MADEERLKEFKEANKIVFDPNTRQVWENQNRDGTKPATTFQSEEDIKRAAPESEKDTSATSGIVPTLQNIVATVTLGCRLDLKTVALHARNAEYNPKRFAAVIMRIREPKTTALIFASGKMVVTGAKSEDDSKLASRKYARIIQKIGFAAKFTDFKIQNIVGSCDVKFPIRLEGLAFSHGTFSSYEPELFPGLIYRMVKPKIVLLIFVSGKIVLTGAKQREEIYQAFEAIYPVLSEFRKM
T1 sequence 3: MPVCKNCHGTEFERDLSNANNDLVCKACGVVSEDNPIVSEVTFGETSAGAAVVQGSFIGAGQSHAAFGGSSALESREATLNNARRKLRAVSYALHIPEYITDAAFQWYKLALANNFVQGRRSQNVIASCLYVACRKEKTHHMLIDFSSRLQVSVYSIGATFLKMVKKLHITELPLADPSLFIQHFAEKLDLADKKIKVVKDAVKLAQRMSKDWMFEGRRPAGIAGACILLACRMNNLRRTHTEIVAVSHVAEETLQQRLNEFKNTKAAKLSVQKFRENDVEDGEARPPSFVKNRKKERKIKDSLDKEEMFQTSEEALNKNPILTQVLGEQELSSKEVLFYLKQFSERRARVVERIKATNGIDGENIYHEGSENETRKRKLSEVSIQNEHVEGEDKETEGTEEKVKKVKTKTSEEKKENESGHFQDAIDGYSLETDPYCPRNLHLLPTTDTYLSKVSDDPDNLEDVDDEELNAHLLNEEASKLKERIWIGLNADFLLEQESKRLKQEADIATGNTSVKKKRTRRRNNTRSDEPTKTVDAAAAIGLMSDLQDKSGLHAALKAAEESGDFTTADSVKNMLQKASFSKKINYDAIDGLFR

Nab2;Tbp = molecular target: T2, Nab2;Tbp (Saccharomyces cerevisiae;Saccharomyces …, UniProt P32505;P13393 1-525;1-240, |)
T2 sequence 1: T1 sequence 1
T2 sequence 2: T1 sequence 2

Nab2;Tbp;Brf1;Bdp1 = Nab2;Tbp;Brf1;Bdp1 (Saccharomyces cerevisiae;Saccharomyces …, UniProt P32505;P13393;P29056;P46678 1-525;1-240;1-596;1-594, |||)
Sequence of Nab2;Tbp;Brf1;Bdp1 (P46678 whole entry, one chain of several): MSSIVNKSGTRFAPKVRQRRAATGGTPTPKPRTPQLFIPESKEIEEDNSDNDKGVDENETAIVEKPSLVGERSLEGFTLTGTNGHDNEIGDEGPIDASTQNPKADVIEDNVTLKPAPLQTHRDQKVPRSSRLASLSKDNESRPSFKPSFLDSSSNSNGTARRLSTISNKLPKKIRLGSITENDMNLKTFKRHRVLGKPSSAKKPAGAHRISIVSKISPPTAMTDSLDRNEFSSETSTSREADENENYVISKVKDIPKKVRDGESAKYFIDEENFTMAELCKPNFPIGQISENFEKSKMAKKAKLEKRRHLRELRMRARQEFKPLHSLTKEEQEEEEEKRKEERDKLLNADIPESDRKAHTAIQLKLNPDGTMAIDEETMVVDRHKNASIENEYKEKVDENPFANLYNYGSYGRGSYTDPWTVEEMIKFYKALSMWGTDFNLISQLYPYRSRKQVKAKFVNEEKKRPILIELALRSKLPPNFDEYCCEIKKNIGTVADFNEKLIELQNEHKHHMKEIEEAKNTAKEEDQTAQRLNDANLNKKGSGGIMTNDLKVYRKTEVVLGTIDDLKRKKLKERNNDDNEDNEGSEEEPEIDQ

Measured: binding result

B1: TA-30-B6 (dsDNA)
DNA 1: GCTGAAATCTCTTTTTCAATTGCTCCGGTGTATAAAGCCGCGGTCCCTTACTCTTTCTTCAACAATTAAATACTC
DNA 2: GAGTATTTAATTGTTGAAGAAAGAGTAAGGGACCGCCCCTTTATTGACCGGAGCAATTGAAAAAGAGATTTCAGC
binds: all assays above
